Data as given in patent publication US20140315797A1, “Novel N-Terminally Modified Insulin Derivatives” (priority 2010, published 2014).
Starred links: 1 amine or outer side, 2 acyl side, 3 side chain; linkers in the order of their positions; H or OH if unused. Positions of bridges follow the written chain, without caps; N, C: chain ends. Groups on a side chain read outwards from the residue. Chains are numbered I, II in the order given. No end group written: not given here. *: point of attachment. Phe(Nα-CONH2) = NC(=O)N[C@@H](Cc1ccccc1)C(=O)*; C18 diacid = O=C(O)CCCCCCCCCCCCCCCCC(=O)*; NMe2Phe = CN(C)[C@@H](Cc1ccccc1)C(=O)*; γGlu = O=C(O)[C@H](CCC(=O)[*:2])N[*:1]; Hydantoyl = NC(=O)NCC(=O)*; AEEA = NCCOCCOCC(=O)O; Me2Gly = CN(C)CC(=O)*

Key:
[1] = system: primary rat adipocytes; test: Lipogenesis in rat adipocytes; type: cell-based; conditions: relative potency vs human insulin, unit %
Protocol: As a measure of in vitro potency of the insulins of the invention, lipogenesis can be used.
Primary rat adipocytes are isolated from the epididymale fat pads and incubated with 3H-glucose in buffer containing e.g. 0.1% fat free HSA and either standard (human insulin, HI) or insulin of the invention. The labelled glucose is converted into extractable lipids in a dose dependent way, resulting in full dose response curves.

[2] = system: duodenum lumen enzymes; test: Degradation of insulin analogs using duodenum lumen enzymes; conditions: degradation half time divided by that of reference insulin; rat duodenum enzymes, pH 7.4, 37° C.
Protocol: Degradation of insulin analogs using duodenum lumen enzymes (prepared by filtration of duodenum lumen content) from SPD rats. The assay is performed by a robot in a 96 well plate (2 ml) with 16 wells available for insulin analogs and standards. Insulin analogs ˜15 μM are incubated with duodenum enzymes in 100 mM Hepes, pH=7.4 at 37° C., samples are taken after 1, 15, 30, 60, 120 and 240 min and reaction quenched by addition of TFA. Intact insulin analogs at each point are determined by RP-HPLC. Degradation half time is determined by exponential fitting of the data and normalized to half time determined for the reference insulins, A14E, B25H, desB30 human insulin or human insulin in each assay. The amount of enzymes added for the degradation is such that the half time for degradation of the reference insulin is between 60 min and 180 min.

[3] = molecular target: T1, human insulin receptor (IR-A) (Homo sapiens, UniProt P06213); conditions: relative to affinity of human insulin; […] HSA in binding buffer
Protocol: (§1) The affinity of the acylated insulin analogues of this invention for the human insulin receptor is determined by a SPA assay (Scintillation Proximity Assay) microtiterplate antibody capture assay. SPA-PVT antibody-binding beads, anti-mouse reagent (Amersham Biosciences, Cat No. PRNQ0017) are mixed with 25 ml of binding buffer (100 mM HEPES pH 7.8; 100 mM sodium chloride, 10 mM MgSO4, 0.025% Tween-20). Reagent mix for a single Packard Optiplate (Packard No. 6005190) is composed of 2.4 μl of a 1:5000 diluted purified recombinant human insulin receptor (either with or without exon 11), an amount of a stock solution of A14Tyr[^125I]-human insulin corresponding to 5000 cpm per 100 μl of reagent mix, 12 μl of a 1:1000 dilution of F12 antibody, 3 ml of SPA-beads and binding buffer to a total of 12 ml. A total of 100 μl reagent mix is then added to each well in the Packard Optiplate and a dilution series of the insulin derivative is made in the Optiplate from appropriate samples. The samples are then incubated for 16 hours while gently shaken. The phases are the then separated by centrifugation for 1 min and the plates counted in a Topcounter. The binding data were fitted using the nonlinear regression algorithm in the GraphPad Prism 2.01 (GraphPad Software, San Diego, Calif.) and affinities are expressed relative (in percentage (%)) to the affinity of human insulin.
A related assay is also used wherein the binding buffer also contains 1.5% HSA in order to mimic physiological conditions

[4] = Hydrophobicity by isocratic reverse phase HPLC (k'rel); type: physicochemical; conditions: human insulin = 1, RP-HPLC pH 7.3
Protocol: The elution time of the insulin derivative is compared to that of human insulin (herein designated HI) or another derivative with a known hydrophibicity under the same conditions. The hydrophobicity, k′rel, is calculated as: k′relderiv=((tderiv−t0)/(tref−t0))*k′relref. Using HI as reference: k′relref=k′relHI=1. The void time of the HPLC system, t0, is determined by injecting 5 μl of 0.1 mM NaNO3. Running conditions:
Column: Lichrosorb RP-C18, 5 μm, 4×250 mm
Buffer A: 0.1 M natrium phosphate pH 7.3, 10 vol % CH3CN
After running an initial gradient, the isocratic level for running the derivative and reference (for example HI) is chosen, and the elution times of the derivative and reference under isocratic conditions are used in the above equation to calculate k′relderiv.

[5] = molecular target: T1, human insulin receptor (IR-A); test: Insulin receptor affinity, SPA antibody capture assay, 0% HSA; type: binding; conditions: relative to affinity of human insulin
Protocol: as §1

[6] = Chemical stability of insulin analogues formulated in lipid formulations (UPLC purity, SEC HMWP); type: physicochemical; conditions: lipid formulation, 4 weeks, 30° C.
Protocol: Chemical stability of insulin analogues formulated in lipid formulations was assessed according to the protocol described here.
Composition of the formulation: […]
Insulin to be tested (75 μM)
The insulin to be tested (lyophilised from pH 7.5) is dissolved in propylenglycol in the dark for 16 hours. Diglycerol caprylate is added ad the mixture is stirred. Tween 20 is added and the mixture is stirred for 5 minutes. The mixture is gently agitated until it is homogeneous.
Extraction-mix: 1-butanol+0.1% (w/w) Tween80, 0.1M Na2HPO4/NaH2PO4 pH 7.0 • 1. The formulations are allowed to reach room temperature. • 2. To each Eppendorf tube 20 μl of the formulations are added. • 3. Add 490 μl 1-butanol followed by addition of 990 μl of the phosphate buffer. Vortex and incubate at RT for 30 min. • 4. Vortex again and centrifuge at RT at 14000 rpm for 20 min. Analyse the bottom aqueous phase for purity and HMWP formation.
Alternatively another extraction method can be used: • 1. The formulations are allowed to reach room temperature. • 2. To each Eppendorf tube 50 μl of the formulations are added. • 3. Add 950 μl of extraction buffer. Vortex well. Immediately after, load 800 μl (2×400 μl) for purification on the spin column. See spin protocol below. Ion Exchange on Q Spin Columns from Sartorius
(In the following all spin steps are for 5 min at 2000×g.) • 1. Apply 400 μl equilibration buffer to each spin column, and spin. Discard the flow-through. • 2. Apply 2×400 μl of each extracted sample. Spin the column between each application. Discard the flow-through. • 3. Apply 400 μl washing buffer to wash each spin column, and spin. Discard the wash. • 4. Apply 400 μl elution buffer to each spin column, and spin. Analyse the elution for purity and HMWP formation
Column: Waters BEH Shield RP18 UPLC column (2.1×100 mm, 1.7 μm)
Buffer A: 0.09M di-ammonium hydrogen phosphate pH 3.0, 10% (v/v) acetonitrile
Buffer B: 90% acetonitrile.
Column: Waters Insulin HMWP SEC column
Buffer: 500 mM NaCl, 10 mM NaH2PO4, 5 mM H3PO4, 50% (v/v) 2-propanol

T1 sequence (P06213 28-746 isoform P06213-2 limits assumed): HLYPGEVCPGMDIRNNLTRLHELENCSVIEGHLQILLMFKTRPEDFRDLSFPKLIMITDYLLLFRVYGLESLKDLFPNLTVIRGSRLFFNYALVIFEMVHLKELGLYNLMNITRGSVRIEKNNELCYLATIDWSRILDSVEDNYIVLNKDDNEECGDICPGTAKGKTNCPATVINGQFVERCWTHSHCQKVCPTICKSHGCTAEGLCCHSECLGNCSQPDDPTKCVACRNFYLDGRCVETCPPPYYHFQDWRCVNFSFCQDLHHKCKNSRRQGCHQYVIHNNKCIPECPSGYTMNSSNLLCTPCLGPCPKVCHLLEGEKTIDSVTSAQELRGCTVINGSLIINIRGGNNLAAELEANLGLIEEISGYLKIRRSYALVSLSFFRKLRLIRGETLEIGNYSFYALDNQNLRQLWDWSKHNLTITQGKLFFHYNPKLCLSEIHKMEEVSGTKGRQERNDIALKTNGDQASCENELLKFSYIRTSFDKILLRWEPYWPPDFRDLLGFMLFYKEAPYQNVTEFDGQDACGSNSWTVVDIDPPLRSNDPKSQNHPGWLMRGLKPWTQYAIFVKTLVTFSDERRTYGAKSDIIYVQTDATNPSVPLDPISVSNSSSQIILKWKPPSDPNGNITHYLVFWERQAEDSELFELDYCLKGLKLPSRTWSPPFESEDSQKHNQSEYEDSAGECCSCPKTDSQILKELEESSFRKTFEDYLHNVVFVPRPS
T1 sequence (P06213 763-1382 partner limits assumed): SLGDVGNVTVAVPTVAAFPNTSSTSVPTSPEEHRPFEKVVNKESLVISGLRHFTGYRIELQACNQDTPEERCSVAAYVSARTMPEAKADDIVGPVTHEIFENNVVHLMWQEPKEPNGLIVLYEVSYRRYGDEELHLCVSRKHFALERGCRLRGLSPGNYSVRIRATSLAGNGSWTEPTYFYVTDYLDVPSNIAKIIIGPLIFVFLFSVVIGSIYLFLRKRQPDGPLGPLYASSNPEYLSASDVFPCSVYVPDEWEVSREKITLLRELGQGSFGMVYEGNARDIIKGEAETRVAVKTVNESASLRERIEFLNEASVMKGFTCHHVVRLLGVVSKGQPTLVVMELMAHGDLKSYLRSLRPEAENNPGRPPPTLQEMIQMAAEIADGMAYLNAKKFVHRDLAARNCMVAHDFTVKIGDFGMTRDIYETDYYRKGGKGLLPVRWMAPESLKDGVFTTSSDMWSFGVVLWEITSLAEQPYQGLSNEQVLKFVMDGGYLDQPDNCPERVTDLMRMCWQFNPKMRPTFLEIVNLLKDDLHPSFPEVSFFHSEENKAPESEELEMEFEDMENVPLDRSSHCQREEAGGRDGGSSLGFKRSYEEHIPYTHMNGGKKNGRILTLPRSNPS

Row | Substance | Lipogenesis in rat adipocytres (@ 0.1% HSA) rel. to human insulin [1] | Duodenum degradation. Relative stability vs. A14E, B25H, desB30 human insulin [2] | Relative IR-A affinity (@ […] HSA) (%)e [3] | Hydrophobicity rel. to human insulin [4] | Relative IR-A affinity (@ 0% HSA) (%) [5] | HMWP formed (%) 4 weeks [6] | Impurities formed (%) 4 weeks [6]
1 | A1G(N^α, N^α-Dimethyl), A14E, B1F(N(alpha), N(N^α, N^α-dimethyl), B25H, desB27, B29K(N^εhexadecanedioyl-gGlu-2xOEG), desB30 human insulin [Example 9] | 1.34% | 9.2 | 0.33% | 0.10 | 2.5% | – | –
2 | I: NMe2Phe-VNQHLCGSHLVEALYLVCGERGFHYTPK([AEEA-AEEA-γGlu-C18 diacid]) / II: Me2Gly-IVEQCCTSICSLEQLENYCN (disulfide I:6-II:6, I:18-II:19, II:5-II:10) [Example 1, A1(N^α, N^α-Dimethyl), A14E, B1(N^α, N^α-dimethyl), B25H, B29K(N^εoctadecanedioyl-gGlu-2xOEG), desB30 human insulin] | 0.10% | 1.2 | 0.09% | 0.38 | 1.5% | 0.4% | 9.8%
3 | I: {Phe(Nα-CONH2)}-VNQHLCGSHLVEALYLVCGERGFHYTPK([AEEA-AEEA-γGlu-C18 diacid]) / II: Hydantoyl-IVEQCCTSICSLEQLENYCN (disulfide I:6-II:6, I:18-II:19, II:5-II:10) [Example 12, A1(N^αCarbamoyl), A14E, B1(N^αCarbamoyl), B25H, B29K(N^εoctadecanedioyl-gGlu-2xOEG), desB30 human insulin] | 0.02% | 1.5 | 0.06% | 0.15 | 0.3% | 0.2% | 4.4%
